Reference: patent US6407216 (Genentech, dated 2002)

Columns and labels:
[1] = biological target: T1, Drosophila Smoothened (dSmo), epitope tagged, expressed on transfected cells (Drosophila, UniProt P91682 32-1036); test: staining of transfected cells exposed to the ligand
T1 construct: cDNA described in Alcedo et al; also called dros.smo
T1 sequence: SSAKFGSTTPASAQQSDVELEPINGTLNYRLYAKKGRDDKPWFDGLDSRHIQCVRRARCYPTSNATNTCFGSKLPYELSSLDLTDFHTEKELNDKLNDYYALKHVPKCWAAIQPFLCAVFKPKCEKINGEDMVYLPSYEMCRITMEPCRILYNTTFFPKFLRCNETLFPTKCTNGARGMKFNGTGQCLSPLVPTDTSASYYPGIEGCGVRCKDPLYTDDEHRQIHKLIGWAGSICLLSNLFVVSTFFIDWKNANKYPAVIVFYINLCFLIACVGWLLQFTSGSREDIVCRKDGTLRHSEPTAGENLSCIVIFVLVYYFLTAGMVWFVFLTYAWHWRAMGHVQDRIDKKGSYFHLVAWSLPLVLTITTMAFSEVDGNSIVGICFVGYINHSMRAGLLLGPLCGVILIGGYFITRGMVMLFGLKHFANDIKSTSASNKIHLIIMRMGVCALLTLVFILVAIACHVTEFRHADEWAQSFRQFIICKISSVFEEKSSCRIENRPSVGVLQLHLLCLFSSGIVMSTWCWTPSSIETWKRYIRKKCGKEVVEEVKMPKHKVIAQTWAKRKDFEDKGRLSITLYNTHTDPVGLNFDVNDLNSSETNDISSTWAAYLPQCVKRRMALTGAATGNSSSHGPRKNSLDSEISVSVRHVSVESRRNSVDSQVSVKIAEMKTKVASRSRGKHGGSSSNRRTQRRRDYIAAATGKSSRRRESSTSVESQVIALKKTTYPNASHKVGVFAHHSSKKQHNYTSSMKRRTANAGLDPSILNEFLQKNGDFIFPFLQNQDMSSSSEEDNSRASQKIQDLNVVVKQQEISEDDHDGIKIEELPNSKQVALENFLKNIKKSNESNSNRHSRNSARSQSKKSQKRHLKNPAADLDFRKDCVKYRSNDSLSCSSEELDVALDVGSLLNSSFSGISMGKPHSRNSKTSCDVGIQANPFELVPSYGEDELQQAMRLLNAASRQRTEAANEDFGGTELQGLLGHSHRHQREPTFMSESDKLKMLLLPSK
Protocol: (§1) Binding assays were conducted to test binding between cells expressing rSmo or dSmo and (1) epitope tagged SHH-N, (2) an IgG-SHH-N chimera, and (3) an epitope tagged Desert HH. For visualization of SHH binding, COS-7 cells (Genentech, Inc.) transiently expressing rSmo or mPatched (murine Patched) were exposed to epitope tagged SHH-N (2 hours at 4° C.), washed 4 times with PBS, then fixed and stained with a cy3-conjugated anti-human IgG (Jackson ImmunoResearch) (for IgG-SHH-N) or anti-Flag M2 antibody (Kodak/IBI) (for Flag-tagged SHH-N).

[2] = biological target: T2, rat Smoothened (rSmo), Flag epitope tagged, expressed on transfected cells (rat, UniProt P97698 33-793); test: as above
T2 construct: residues 33-793 derived from that statement; Transiently expressed in COS-7 or 293 cells; co-immunoprecipitations were done from cell lysates; also called Flag tagged rSmo
Protocol: as §1

T2 sequence (P97698 33-793): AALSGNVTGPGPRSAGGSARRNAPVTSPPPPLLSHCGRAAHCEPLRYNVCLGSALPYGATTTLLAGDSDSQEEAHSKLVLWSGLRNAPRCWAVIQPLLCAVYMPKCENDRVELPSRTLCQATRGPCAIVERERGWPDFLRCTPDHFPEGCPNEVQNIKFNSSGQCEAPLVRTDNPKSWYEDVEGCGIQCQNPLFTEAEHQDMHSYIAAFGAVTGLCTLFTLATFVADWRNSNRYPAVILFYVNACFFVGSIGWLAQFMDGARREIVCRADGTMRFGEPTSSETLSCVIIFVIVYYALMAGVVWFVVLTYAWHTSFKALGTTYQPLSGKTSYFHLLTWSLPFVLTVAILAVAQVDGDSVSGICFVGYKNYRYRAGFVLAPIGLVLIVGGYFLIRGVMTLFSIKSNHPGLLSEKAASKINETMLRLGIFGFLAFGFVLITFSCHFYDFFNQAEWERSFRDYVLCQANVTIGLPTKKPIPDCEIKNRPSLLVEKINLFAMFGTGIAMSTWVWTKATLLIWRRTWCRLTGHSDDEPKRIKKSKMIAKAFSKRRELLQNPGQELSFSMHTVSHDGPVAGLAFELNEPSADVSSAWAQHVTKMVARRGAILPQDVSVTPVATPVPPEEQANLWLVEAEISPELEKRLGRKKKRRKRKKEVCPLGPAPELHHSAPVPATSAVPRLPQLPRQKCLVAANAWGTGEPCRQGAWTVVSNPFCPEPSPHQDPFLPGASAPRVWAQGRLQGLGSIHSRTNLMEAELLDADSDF

B1: epitope tagged Desert HH (ligand, not shown: small tags and cut ends)
chain: not shown
binding result [1]: no binding | binding result [2]: no binding
